According to patent publication US20190338028A1 (PROMAB BIOTECHNOLOGIES, published 2019):

Molecular target: T1, CD47 on human cancer cells and in human tumor and normal tissue samples (human, UniProt Q08722 19-323)
T1 construct: whole, on cells; also called CD47 antigen; CD47 tumor antigen
Test: IHC staining of tumor and normal tissue samples

binding result: binds
B1: humanized CD47 ScFv fused in frame with C-terminal human Fc (scFv)
scFv: EVQLVESGGGLVQPGGSLRLSCAASGFTFSGYGMSWVRQAPGKGLEWVATITSGGTYTYYPDSVKGRFTISRDNAKNSLYLQMNSLRAEDTAVYYCARSLAGNAMDYWGQGTLVTVSSGGGGSGGGGSGGGGSEIVLTQSPATLSLSPGERATLSCRASQSISDYLHWYQQKPGQAPRLLIYFASQRATGIPARFSGSGSGTDFTLTISSLEPEDFAVYYCQQGHGFPRTFGGGTKVEIK
notes: also called humanized anti-CD47 scFv; not shown: C-terminal human Fc from pYD11 vector
